± gives the standard deviation of the averaged measurements. Where only a bound is given, the exact number is not on record here.

The nature of the data set: total protein half-life in vivo (active degradation + dilution); higher = more stable protein.
Where [1] appears, read: E. coli NCM3722 delta-clpP delta-lon delta-hslV, growth: N-lim chemostat, doubling time 6 h.
Setting [2] is: E. coli NCM3722 delta-clpP, growth: N-lim chemostat, doubling time 6 h.
[3] abbreviates: E. coli NCM3722 delta-hslV, growth: N-lim chemostat, doubling time 6 h.
[4] abbreviates: E. coli NCM3722 delta-lon, growth: N-lim chemostat, doubling time 6 h.
[5] abbreviates: E. coli NCM3722 delta-smpB, growth: N-lim chemostat, doubling time 6 h.
[6] abbreviates: wild type E. coli NCM3722, growth: C-lim chemostat, doubling time 3 h.
The mark [7] stands for this setting: wild type E. coli NCM3722, growth: C-lim chemostat, doubling time 6 h.
Setting [8] is: wild type E. coli NCM3722, growth: C-lim chemostat, doubling time 12 h.
Where [9] appears, read: wild type E. coli NCM3722, growth: N-lim chemostat, doubling time 6 h.
Setting [10] is: wild type E. coli NCM3722, growth: N-lim chemostat, doubling time 12 h.
Where [11] appears, read: wild type E. coli NCM3722, growth: P-lim chemostat, doubling time 6 h.
Where [12] appears, read: wild type E. coli NCM3722, growth: P-lim chemostat, doubling time 12 h.

With “MKLKTTLFGNVYQFKDVKEVLAKANELRSGDVLAGVAAASSQERVAAKQVLSEMTVADIRNNPVIAYEDDCVTRLIQDDVNETAYNQIKNWSISELREYVLSDETSVDDIAFTRKGLTSEVVAAVAKICSNADLIYGAKKMPVIKKANTTIGIPGTFSARLQPNDTRDDVQSIAAQIYEGLSFGVGDAVIGVNPVTDDVENLSRVLDTIYGVIDKFNIPTQGCVLAHVTTQIEAIRRGAPGGLIFQSICGSEKGLKEFGVELAMLDEARAVGAEFNRIAGENCLYFETGQGSALSAGANFGADQVTMEARNYGLARHYDPFIVNTVVGFIGPEYLYNDRQIIRAGLEDHFMGKLSGISMGCDCCYTNHADADQNLNENLMILLATAGCNYIMGMPLGDDIMLNYQTTAFHDTATVRQLLNLRPSPEFERWLESMGIMANGRLTKRAGDPSLFF [P0AEJ6]”, the “total protein half-life in vivo” value under setting [1] is 5.95 ± 1.3 h; the “total protein half-life in vivo” value under setting [2] was determined as 5.45 ± 0.56 h; the “total protein half-life in vivo” value under setting [3] was 4.07 ± 0.41 h; the “total protein half-life in vivo” value under setting [4] was 4.68 ± 0.12 h; the “total protein half-life in vivo” value under setting [5] came out at 3.91 ± 0.24 h; the “total protein half-life in vivo” value under setting [6] came to 3.36 ± 0.3 h. In addition, the “total protein half-life in vivo” value is, setting by setting: under setting [7], 6.26 ± 0.2 h; under setting [8], 11.1 ± 0.83 h; under setting [9], 3.82 ± 0.15 h; under setting [10], 6.18 ± 0.099 h; under setting [11], 6.37 ± 0.16 h; under setting [12], 12 ± 0.84 h.
As for “MIKKTTEIDAILLNLNKAIDAHYQWLVSMFHSVVARDASKPEITDNHSYGLCQFGRWIDHLGPLDNDELPYVRLMDSAHQHMHNCGRELMLAIVENHWQDAHFDAFQEGLLSFTAALTDYKIYLLTIRSNMDVLTGLPGRRVLDESFDHQLRNAEPLNLYLMLLDIDRFKLVNDTYGHLIGDVVLRTLATYLASWTRDYETVYRYGGEEFIIIVKAANDEEACRAGVRICQLVDNHAITHSEGHINITVTAGVSRAFPEEPLDVVIGRADRAMYEGKQTGRNRCMFIDEQNVINRV”, the “total protein half-life in vivo” value is, setting by setting: under setting [5], 1.44 h; under setting [10], 3.5 h.
Regarding “MSTPLQGIKVLDFTGVQSGPSCTQMLAWFGADVIKIERPGVGDVTRHQLRDIPDIDALYFTMLNSNKRSIELNTKTAEGKEVMEKLIREADILVENFHPGAIDHMGFTWEHIQEINPRLIFGSIKGFDECSPYVNVKAYENVAQAAGGAASTTGFWDGPPLVSAAALGDSNTGMHLLIGLLAALLHREKTGRGQRVTMSMQDAVLNLCRVKLRDQQRLDKLGYLEEYPQYPNGTFGDAVPRGGNAGGGGQPGWILKCKGWETDPNAYIYFTIQEQNWENTCKAIGKPEWITDPAYSTAHARQPHIFDIFAEIEKYTVTIDKHEAVAYLTQFDIPCAPVLSMKEISLDPSLRQSGSVVEVEQPLRGKYLTVGCPMKFSAFTPDIKAAPLLGEHTAAVLQELGYSDDEIAAMKQNHAI”, the “total protein half-life in vivo” value under setting [11] was found to be 5.48 h.
For “MLYLTKISNAGSEFTENEQKIADFLQANVSELQSVSSRQMAKQLGISQSSIVKFAQKLGAQGFTELRMALIGEYSASREKTNATALHLHSSITSDDSLEVIARKLNREKELALEQTCALLDYARLQKIIEVISKAPFIQITGLGGSALVGRDLSFKLMKIGYRVACEADTHVQATVSQALKKGDVQIAISYSGSKKEIVLCAEAARKQGATVIAITSLTDSPLRRLAHFTLDTVSGETEWRSSSMSTRTAQNSVTDLLFVGLVQLNDVESLKMIQRSSELTQRLK”, the “total protein half-life in vivo” value was 6.32 ± 0.32 h under setting [1]; 5.62 ± 0.76 h under setting [2]; 5.52 ± 0.44 h under setting [3]; 5.93 ± 2.8 h under setting [4]; 5.37 ± 0.52 h under setting [5]; 3.04 ± 0.11 h under setting [6]. Further, the “total protein half-life in vivo” value worked out at 5.97 ± 0.46 h under setting [7]; 12.7 ± 3 h under setting [8]; 5.36 ± 0.48 h under setting [9]; 5.74 h under setting [11]; 12 ± 2 h under setting [12].
Turning to “MTYAVEFDNVSRLYGDVRAVDGVSIAIKDGEFFSMLGPSGSGKTTCLRLIAGFEQLSGGAISIFGKPASNLPPWERDVNTVFQDYALFPHMSILDNVAYGLMVKGVNKKQRHAMAQEALEKVALGFVHQRKPSQLSGGQRQRVAIARALVNEPRVLLLDEPLGALDLKLREQMQLELKKLQQSLGITFIFVTHDQGEALSMSDRVAVFNNGRIEQVDSPRDLYMRPRTPFVAGFVGTSNVFDGLMAEKLCGMTGSFALRPEHIRLNTPGELQANGTIQAVQYQGAATRFELKLNGGEKLLVSQANMTGEELPATLTPGQQVMVSWSRDVMVPLVEER”, the “total protein half-life in vivo” value is, setting by setting: under setting [1], 6.01 ± 0.38 h; under setting [2], 6.427 ± 0.038 h; under setting [3], 5.58 ± 0.28 h; under setting [4], 4.65 ± 1.3 h; under setting [5], 5.64 ± 0.085 h; under setting [8], 10.2 ± 0.023 h. Also, the “total protein half-life in vivo” value is, setting by setting: under setting [9], 4.78 ± 0.27 h; under setting [10], 10.4 ± 0.55 h; under setting [11], 4.68 h; under setting [12], 10.8 ± 1.8 h.
On to “MTDLSHSREKDKINPVVFYTSAGLILLFSLTTILFRDFSALWIGRTLDWVSKTFGWYYLLAATLYIVFVVCIACSRFGSVKLGPEQSKPEFSLLSWAAMLFAAGIGIDLMFFSVAEPVTQYMQPPEGAGQTIEAARQAMVWTLFHYGLTGWSMYALMGMALGYFSYRYNLPLTIRSALYPIFGKRINGPIGHSVDIAAVIGTIFGIATTLGIGVVQLNYGLSVLFDIPDSMAAKAALIALSVIIATISVTSGVDKGIRVLSELNVALALGLILFVLFMGDTSFLLNALVLNVGDYVNRFMGMTLNSFAFDRPVEWMNNWTLFFWAWWVAWSPFVGLFLARISRGRTIRQFVLGTLIIPFTFTLLWLSVFGNSALYEIIHGGAAFAEEAMVHPERGFYSLLAQYPAFTFSASVATITGLLFYVTSADSGALVLGNFTSQLKDINSDAPGWLRVFWSVAIGLLTLGMLMTNGISALQNTTVIMGLPFSFVIFFVMAGLYKSLKVEDYRRESANRDTAPRPLGLQDRLSWKKRLSRLMNYPGTRYTKQMMETVCYPAMEEVAQELRLRGAYVELKSLPPEEGQQLGHLDLLVHMGEEQNFVYQIWPQQYSVPGFTYRARSGKSTYYRLETFLLEGSQGNDLMDYSKEQVITDILDQYERHLNFIHLHREAPGHSVMFPDA [P0ABC9]”, for which the “total protein half-life in vivo” value by setting is: under setting [1], 6.17 ± 0.24 h; under setting [2], 7.418 ± 0.034 h; under setting [3], 5.75 ± 1.3 h; under setting [4], greater than 8 h; under setting [5], 5.11 ± 0.14 h; under setting [7], 5.56 h. Moreover, the “total protein half-life in vivo” value is, setting by setting: under setting [8], 11.6 ± 2 h; under setting [9], 6.17 h; under setting [10], 9.97 h; under setting [11], 6.22 ± 1.3 h; under setting [12], 13.1 ± 1.3 h.
For “MRTRHLVGLISGVLILSVLLPVGLSIWLAHQQVETSFIEELDTYSSRVAIRANKVATQGKDALQELERWQGAACSEAHLMEMRRVSYSYRYIQEVAYIDNNVPQCSSLEHESPPDTFPEPGKISKDGYRVWLTSHNDLGIIRYMVAMGTAHYVVMIDPASFIDVIPYSSWQIDAAIIGNAHNVVITSSDEIAQGIITRLQKTPGEHIENNGIIYDILPLPEMNISIITWASTKMLQKGWHRQVFIWLPLGLVIGLLAAMFVLRILRRIQSPHHRLQDAIENRDICVHYQPIVSLANGKIVGAEALARWPQTDGSWLSPDSFIPLAQQTGLSEPLTLLIIRSVFEDMGDWLRQHPQQHISINLESPVLTSEKIPQLLRDMINHYQVNPRQIALELTEREFADPKTSAPIISRYREAGHEIYLDDFGTGYSSLSYLQDLDVDILKIDKSFVDALEYKNVTPHIIEMAKTLKLKMVAEGIETSKQEEWLRQHGVHYGQGWLYSKALPKEDFLRWAEQHL”, the “total protein half-life in vivo” value under setting [1] amounted to 6.97 ± 0.34 h; the “total protein half-life in vivo” value under setting [3] came out at 5.64 ± 0.36 h; the “total protein half-life in vivo” value under setting [4] worked out at 5.57 ± 1.2 h; the “total protein half-life in vivo” value under setting [5] turned out to be 6.12 ± 0.67 h; the “total protein half-life in vivo” value under setting [6] is 3.21 ± 0.33 h; the “total protein half-life in vivo” value under setting [9] is 6 ± 0.23 h. Moreover, the “total protein half-life in vivo” value was 12.2 ± 0.44 h under setting [10], 6.32 ± 0.94 h under setting [11] and 12.6 ± 0.13 h under setting [12].
On to “MSEALKILNNIRTLRAQARECTLETLEEMLEKLEVVVNERREEESAAAAEVEERTRKLQQYREMLIADGIDPNELLNSLAAVKSGTKAKRAQRPAKYSYVDENGETKTWTGQGRTPAVIKKAMDEQGKSLDDFLIKQ [P0ACF8]”, for which the “total protein half-life in vivo” value by setting is: under setting [3], 6.19 ± 0.062 h; under setting [4], 7.64 ± 0.48 h; under setting [5], 5.87 ± 1.2 h; under setting [6], 2.9 ± 0.29 h; under setting [7], 6.22 ± 0.29 h; under setting [8], 9.37 ± 0.21 h. Further, the “total protein half-life in vivo” value by setting is: under setting [9], 5.27 ± 0.45 h; under setting [10], 11.6 ± 2.7 h; under setting [11], 5.16 ± 0.77 h; under setting [12], 11.7 ± 0.41 h.

The record behind these values is the supplement of paper PMC11246515.
